In assay [1] the target is commercial whole IL-15Rα fusion protein (rIL-15Rα-Fc) (UniProt Q13261). In words: not stated; affinity shown in Figure S3A,B; method not told in the main text.
Assay [2] has as its target recombinant interleukin-15Rα-sushi-Fc fusion protein (human). The assay is described as above.
For assay [3] the target is unchanged. Nature of the assay: pull-down; rILR-Fc/PhA NPs incubated with rIL-15 at 37 °C for 30 min in PBS; nanoparticles adsorbed on a Protein A agarose column; free rIL-15 quantified by sandwich ELISA. Background: ELISA stands for enzyme-linked immunosorbent assay.
Assay [4] shares this target.
Assay [5] concerns the target commercial whole IL-15Rα fusion protein (rIL-15Rα-Fc) (UniProt Q13261).
The target in assay [6] is recombinant interleukin-15Rα-sushi-Fc fusion protein (human). This is another data set of the same source.

This note sets out measurements from paper PMC12114846, “Interleukin-15Rα-Sushi-Fc Fusion Protein Co-Hitchhikes Interleukin-15 and Pheophorbide A for Cancer Photoimmunotherapy” (Pharmaceutics, 2025).

Sequence of commercial whole IL-15Rα fusion protein (rIL-15Rα-Fc) (Q13261 31-205): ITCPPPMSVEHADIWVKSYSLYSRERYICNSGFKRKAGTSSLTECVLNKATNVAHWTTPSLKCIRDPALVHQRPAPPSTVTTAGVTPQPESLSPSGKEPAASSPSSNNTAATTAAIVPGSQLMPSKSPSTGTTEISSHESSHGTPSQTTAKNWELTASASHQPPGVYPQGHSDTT
Sequence of recombinant wild-type IL-15 (P40933 49-162): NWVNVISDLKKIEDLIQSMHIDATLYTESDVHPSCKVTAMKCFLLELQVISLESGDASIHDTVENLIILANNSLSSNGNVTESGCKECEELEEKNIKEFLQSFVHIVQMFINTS

Consider “recombinant IL-15 (N72D-mutated human IL-15) (ligand)”, for which the affinity in assay [1] is 0.115 nM; in assay [2], 0.24 nM. For the same substance, the encapsulation efficiency (percent of rIL-15 held by the rILR-Fc/PhA/rIL-15 NPs) in assay [3] was 99.5%. In assay [3], the molar ratio of rIL-15 to rILR-Fc in the nanoparticles was determined as 0.81. Further, in assay [4], the serum elimination half-life (t1/2) of rIL-15 in mice after i.v. injection of rILR-Fc/PhA/rIL-15 NPs (free rIL-15: 20.24 min) worked out at 39.4 min.
Substance “recombinant wild-type IL-15 (from UniProt P40933 49-162) (ligand)” registered an EC50 of M-07e cell proliferation, rIL-15-wt pre-associated with rIL-15Rα-Fc (rIL-15-wt alone: 3.26 nM) in assay [5] of 1.65 nM. In assay [6], the EC50 of M-07e cell proliferation, rIL-15-wt pre-associated with rILR-Fc (rIL-15-wt alone: 3.26 nM) amounted to 1.62 nM.
